Data: article PMC6856373, “The first comprehensive phylogenetic and biochemical analysis of NADH diphosphatases reveals that the enzyme from Tuber melanosporum is highly active towards NAD^+” (Scientific Reports, 2019)

Tests used:
[1] = substrate: NC(=O)C1=CN([C@@H]2O[C@H](COP(=O)(O)OP(=O)(O)OC[C@H]3O[C@@H](n4cnc5c(N)ncnc54)[C@H](O)[C@@H]3O)[C@@H](O)[C@H]2O)C=CC1; assay: HPLC of AMP formation, initial rates, Michaelis-Menten fit; assay type: biochemical, Tuber melanosporum; details: 50 mM Tris-HCl pH 8.0, 37 °C, 0.5 mM MnCl2
Text: (§1) HPLC of AMP formation, initial rates, Michaelis-Menten fit on […]

[2] = substrate: NC(=O)c1ccc[n+]([C@@H]2O[C@H](COP(=O)(O)OP(=O)(O)OC[C@H]3O[C@@H](n4cnc5c(N)ncnc54)[C@H](O)[C@@H]3O)[C@@H](O)[C@H]2O)c1; assay: as above; assay type: biochemical, Tuber melanosporum; details: 50 mM Tris-HCl pH 8.0, 37 °C, 0.5 mM MnCl2
Text: as §1

B1: TmNADD (Tuber melanosporum Mel28) (protein)
chain: MTQPYTATTESHKTSMLSRKFGQEIINYFSGSPLNRVSFLRSSTAFLRAALPRSKFLLMRDLEPLAASKTTLAWVGYETVRELVGNPFDTEEEEFLRGYDSRVEIPTLVFLGMNEEGTGGGGGGESFEFEGEGGKYVGGPCFALDVTEKGSLKEECEKVQEEAVKGAEGREFRKVRLDLSLVPSDAAILAQARSLLDWNNRNQFCSACGARTVSVHAGTKRICPPSDKAFQKDPEGPPFERPPCISRKGIHNIAFPRTDPTVIMAIINSTGDKVLLGRQRRWPKDFYSTLAGFCEPAESVEDAVRRETWEESGVRVGRVVIHSTQPWPYPANLMMGAIGEALPGGEEIVLKHDPELEDAQWVEVGRVRNALQESTGTPDVEVEGAIEGQLRLPPSTAIAHQLLLAVVNGFHLAKL
Work on B1 yielded a Km [1] of 120 ± 10 µM, a kcat [1] of 10.7 ± 1.8 s⁻¹ and a kcat/Km [1] of 89200 ± 19800 M⁻¹ s⁻¹. The Km [2] was 310 ± 50 µM, the kcat [2] was 2.9 ± 0.2 s⁻¹ and the kcat/Km [2] was 9300 ± 1600 M⁻¹ s⁻¹.
